T1: AHR-002 (peptide code; source protein not spelled out) peptide on HLA-A*02:01 (human)
T1 peptide: NLQEGEFLL

T2: VPS39-001 (peptide code; source protein not spelled out) peptide on HLA-A*02:01 (human)
T2 peptide: LLQDKQFEL

T3: GSTA4-001 (peptide code; source protein not spelled out) peptide on HLA-A*02:01 (human)
T3 peptide: KLQDGNHLL

T4: GRB14-002 (peptide code; source protein not spelled out) peptide on HLA-A*02:01 (human)
T4 peptide: GLVDGVFLV

T5: WRN-002 (peptide code; source protein not spelled out) peptide on HLA-A*02:01 (human)
T5 peptide: ILQDLQPFL

T6: SNR-004 (peptide code; source protein not spelled out) peptide on HLA-A*02:01 (human)
T6 peptide: ILQDGRIFI

T7: VPS51-001 (peptide code; source protein not spelled out) peptide on HLA-A*02:01 (human)
T7 peptide: TLTDEQFLV

T8: MUC-009 (peptide code; source protein not spelled out) peptide on HLA-A*02:01 (human)
T8 peptide: ILQEGTFKA

T9: PFN1-001 (peptide code; source protein not spelled out) peptide on HLA-A*02:01 (human)
T9 peptide: LLQDGEFSM

T10: KCM-001 (peptide code; source protein not spelled out) peptide on HLA-A*02:01 (human)
T10 peptide: TLQNSQFLL

T11: DDB1 and CUL4 associated factor 4-like 2 (DCAF4L2); peptide DCAF4L2-001 peptide on HLA-A*02:01 (human)
T11 peptide: ILQDGQFLV

B1: R52P2G11 (TCR, V domains shown)
Valpha: KNQVEQSPQSLIILEGKNCTLQCNYTVSPFSNLRWYKQDTGRGPVSLTIMTFSENTKSNGRYTATLDADTKQSSLHITASQLSDSASYICVVSAYGKLQFGAGTQVVVTP
Vbeta: DAGVIQSPRHEVTEMGQEVTLRCKPISGHNSLFWYRQTMMRGLELLIYFNNNVPIDDSGMPEDRFSAKMPNASFSTLKIQPSEPRDSAVYFCASSLGSPDGNQPQHFGDGTRLSIL
B2: R36P3F9 (TCR, V domains shown)
Valpha: SQQGEEDPQALSIQEGENATMNCSYKTSINNLQWYRQNSGRGLVHLILIRSNEREKHSGRLRVTLDTSKKSSSLLITASRAADTASYFCATVSNYQLIWGAGTKLIIKP
Vbeta: EAQVTQNPRYLITVTGKKLTVTCSQNMNHEYMSWYRQDPGLGLRQIYYSMNVEVTDKGDVPEGYKVSRKEKRNFPLILESPSPNQTSLYFCASSSTSGGLSGETQYFGPGTRLLVL
B3: R53P2A9 (TCR, V domains shown)
Valpha: AQTVTQSQPEMSVQEAETVTLSCTYDTSESDYYLFWYKQPPSRQMILVIRQEAYKQQNATENRFSVNFQKAAKSFSLKISDSQLGDAAMYFCAYNSYAGGTSYGKLTFGQGTILTVHP
Vbeta: DAGVTQSPTHLIKTRGQQVTLRCSPISGHKSVSWYQQVLGQGPQFIFQYYEKEERGRGNFPDRFSARQFPNYSSELNVNALLLGDSALYLCASSLDGTSEQYFGPGTRLTVT

Target: T1, AHR-002 (peptide code; source protein …)
Test: cytokine release

binding result | Binder
no recognition | B1
no recognition | B2
no recognition | B3

Target: T2, VPS39-001 (peptide code; source protein …)
Test: cytokine release

binding result | Binder
no recognition | B1
no recognition | B2
no recognition | B3

Target: T3, GSTA4-001 (peptide code; source protein …)
Test: cytokine release

binding result | Binder
no recognition | B1
no recognition | B2
no recognition | B3

Target: T4, GRB14-002 (peptide code; source protein …)
Test: cytokine release

binding result | Binder
no recognition | B1
no recognition | B2
no recognition | B3

Target: T5, WRN-002 (peptide code; source protein …)
Test: cytokine release

binding result | Binder
no recognition | B1
no recognition | B2
no recognition | B3

Target: T6, SNR-004 (peptide code; source protein …)
Test: cytokine release

binding result | Binder
no recognition | B1
no recognition | B2
no recognition | B3

Target: T7, VPS51-001 (peptide code; source protein …)
Test: cytokine release

binding result | Binder
no recognition | B1
no recognition | B2
no recognition | B3

Target: T8, MUC-009 (peptide code; source protein …)
Test: cytokine release

binding result | Binder
no recognition | B1
no recognition | B2
no recognition | B3

Target: T9, PFN1-001 (peptide code; source protein …)
Test: cytokine release

binding result | Binder
no recognition | B1
no recognition | B2
no recognition | B3

Target: T10, KCM-001 (peptide code; source protein …)
Test: cytokine release

binding result | Binder
no recognition | B1
no recognition | B2
no recognition | B3

Target: T11, DDB1 and CUL4 associated factor 4-like …
Test: multimer staining

binding result | Binder
recognises | B1
recognises | B2
recognises | B3
